Laboratory results: article PMC3418449
Read-outs that look alike come from different tables or passages of the source.

Key:
[1] = target: T1, GRK2 (S670A), flow cytometry and crystallography (bovine, UniProt P21146 1-689, S670A); test: competition
[2] = target: T1, GRK2 (S670A), flow cytometry and …; test: competition; remark: listed apart in the source
[3] = target: T1, GRK2 (S670A), flow cytometry and …; test: competition; remark: listed apart in the source
[4] = target: T1, GRK2 (S670A), flow cytometry and …; test: flow cytometry bead binding
[5] = target: T1, GRK2 (S670A), flow cytometry and …; test: flow cytometry bead binding; remark: listed apart in the source
[6] = target: GRK2-H280A, flow cytometry (UniProt P21146 1-689, H280A); test: flow cytometry bead binding
[7] = target: GRK2-D335A, flow cytometry (UniProt P21146 1-689, D335A); test: flow cytometry bead binding
[8] = target: T1, GRK2 (S670A), flow cytometry and …; test: flow cytometry bead binding; remark: listed apart in the source
[9] = target: GRK2-FG-6A, flow cytometry (UniProt P21146 1-689, R392A;H394A;K395A;K397A;K399A;H400A); test: competition
[10] = target: GRK6 palmitoylation-deficient (human, UniProt P43250 1-576, C561S;C562S;C565S); test: competition
[11] = target: T2, GRK1 truncated at residue 535 (bovine, UniProt P28327 1-535); test: competition
T2 sequence: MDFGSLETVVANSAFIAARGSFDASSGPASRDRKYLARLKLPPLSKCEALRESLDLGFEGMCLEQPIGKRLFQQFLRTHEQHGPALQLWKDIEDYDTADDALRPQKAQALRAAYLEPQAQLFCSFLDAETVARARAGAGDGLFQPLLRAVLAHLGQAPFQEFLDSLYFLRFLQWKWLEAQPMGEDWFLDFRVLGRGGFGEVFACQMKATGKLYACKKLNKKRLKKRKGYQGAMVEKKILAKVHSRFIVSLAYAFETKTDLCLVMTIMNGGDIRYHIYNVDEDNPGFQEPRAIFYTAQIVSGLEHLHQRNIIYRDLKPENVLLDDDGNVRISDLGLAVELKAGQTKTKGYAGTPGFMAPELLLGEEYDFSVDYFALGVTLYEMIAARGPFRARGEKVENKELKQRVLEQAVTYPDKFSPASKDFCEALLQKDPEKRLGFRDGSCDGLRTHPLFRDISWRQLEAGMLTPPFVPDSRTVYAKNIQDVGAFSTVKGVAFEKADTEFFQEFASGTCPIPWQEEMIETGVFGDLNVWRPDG

[12] = target: T1, GRK2 (S670A), flow cytometry and …; test: competition; remark: listed apart in the source

T1 sequence (P21146 whole entry S670A): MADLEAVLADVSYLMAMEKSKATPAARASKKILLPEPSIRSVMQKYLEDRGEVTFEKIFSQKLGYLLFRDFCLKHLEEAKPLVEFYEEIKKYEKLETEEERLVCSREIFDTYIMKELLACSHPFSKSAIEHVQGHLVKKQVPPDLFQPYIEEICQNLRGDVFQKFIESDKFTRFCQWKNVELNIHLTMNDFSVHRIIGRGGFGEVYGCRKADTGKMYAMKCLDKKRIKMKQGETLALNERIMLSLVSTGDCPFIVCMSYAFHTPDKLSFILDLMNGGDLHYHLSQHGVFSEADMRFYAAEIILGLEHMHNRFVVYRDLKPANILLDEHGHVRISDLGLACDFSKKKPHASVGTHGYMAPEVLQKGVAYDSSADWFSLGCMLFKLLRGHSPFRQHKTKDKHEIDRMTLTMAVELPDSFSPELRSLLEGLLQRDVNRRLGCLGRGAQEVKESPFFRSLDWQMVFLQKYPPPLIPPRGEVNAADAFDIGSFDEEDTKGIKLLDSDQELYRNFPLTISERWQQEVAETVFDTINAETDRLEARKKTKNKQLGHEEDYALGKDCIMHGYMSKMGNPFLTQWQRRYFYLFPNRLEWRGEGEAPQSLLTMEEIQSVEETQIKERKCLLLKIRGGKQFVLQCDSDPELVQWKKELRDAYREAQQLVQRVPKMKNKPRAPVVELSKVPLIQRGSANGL
GRK2-H280A, flow cytometry, sequence (P21146 whole entry H280A): as the sequence (P21146 whole entry S670A) above, with H280A, A670S counted along it
GRK2-D335A, flow cytometry, sequence (P21146 whole entry D335A): as the sequence (P21146 whole entry S670A) above, with D335A, A670S counted along it
GRK2-FG-6A, flow cytometry, sequence (P21146 whole entry R392A/H394A/K395A/K397A/K399A/H400A): as the sequence (P21146 whole entry S670A) above, with R392A, H394A, K395A, K397A, K399A, H400A, A670S counted along it
GRK6 palmitoylation-deficient, sequence (P43250 whole entry C561S/C562S/C565S, the tested form may be a part): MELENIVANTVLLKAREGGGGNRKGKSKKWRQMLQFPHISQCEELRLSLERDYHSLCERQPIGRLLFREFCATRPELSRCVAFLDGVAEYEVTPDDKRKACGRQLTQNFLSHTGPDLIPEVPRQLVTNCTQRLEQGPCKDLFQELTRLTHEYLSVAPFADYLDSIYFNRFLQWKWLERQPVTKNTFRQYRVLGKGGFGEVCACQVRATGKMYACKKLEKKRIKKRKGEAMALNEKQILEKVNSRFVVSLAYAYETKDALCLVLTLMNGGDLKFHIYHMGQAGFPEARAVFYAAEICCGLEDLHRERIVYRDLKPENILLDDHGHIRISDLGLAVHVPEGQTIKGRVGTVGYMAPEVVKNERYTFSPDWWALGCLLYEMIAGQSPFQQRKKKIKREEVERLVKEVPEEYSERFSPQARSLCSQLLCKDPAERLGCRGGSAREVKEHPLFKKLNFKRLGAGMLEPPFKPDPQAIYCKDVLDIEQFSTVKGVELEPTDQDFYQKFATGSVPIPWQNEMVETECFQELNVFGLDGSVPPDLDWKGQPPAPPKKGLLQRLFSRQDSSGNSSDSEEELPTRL

## GGCGACCAUACGGGAGAGAAACUGCC (structured_RNA) [C13.26]
[1]
  IC50: 0.9 ± 0.03 nM

## GGCAGACCAUCCGGGAGAGAAACUUGCC (structured_RNA) [C13.28A51C]
[2]
  binding result: no binding

## AGACCAUACGGGAGAGAAACUU (structured_RNA) [C13.22]
[1]
  IC50: 46 ± 9 nM

## GGGUAGCACAGACCAUACGGGAGAGAAACUUGUGCAACCC (structured_RNA) [C13.40]
[1]
  IC50: 1.3 ± 0.1 nM

## GGGCAGACCAUACGGGAGAGAAACUUGCC (structured_RNA) [C13.29]
[1]
  IC50: 0.91 ± 0.07 nM

## CCAUACGGGAGAGAAACU (ssRNA) [C13.18]
[3]
  IC50: 100 ± 41 nM
[4]
  Kd: 35 ± 5 nM

## GGCAGACCAUACGGGAGAGAAACUUGCC (ssRNA) [C13.28]
[5]
  Kd: 3.8 ± 1.2 nM
[3]
  IC50: 0.44 ± 0.19 nM
[6]
  binding result: binds
[7]
  binding result: binds
[1]
  IC50: 1.5 ± 0.1 nM
[8]
  Kd: 1.2 ± 0.6 nM
[9]
  IC50: 510 ± 170 nM
[10]
  IC50: 210 ± 10 nM
[11]
  IC50: 590 ± 160 nM
[12]
  IC50: 3.3 ± 0.3 nM
